Source: patent publication US20030199671A1, “Binding molecules for Fc-region polypeptides” (priority 2001, published 2003)

Assays:
[1] = molecular target: human IgG3 (human) (UniProt P01860); assay: batch binding, immobilised ligand
[2] = molecular target: human IgG4 (human) [IgG part: P01861]; assay: batch binding, immobilised ligand
[3] = molecular target: human IgG1 (human) [IgG part: P01857]; assay: batch binding, immobilised ligand
[4] = molecular target: human IgG2 (human) [IgG part: P01859]; assay: batch binding, immobilised ligand
Chain of human IgG2 (human) [IgG part: P01859] (P01859 other isoform, or with tags, fused parts or gaps): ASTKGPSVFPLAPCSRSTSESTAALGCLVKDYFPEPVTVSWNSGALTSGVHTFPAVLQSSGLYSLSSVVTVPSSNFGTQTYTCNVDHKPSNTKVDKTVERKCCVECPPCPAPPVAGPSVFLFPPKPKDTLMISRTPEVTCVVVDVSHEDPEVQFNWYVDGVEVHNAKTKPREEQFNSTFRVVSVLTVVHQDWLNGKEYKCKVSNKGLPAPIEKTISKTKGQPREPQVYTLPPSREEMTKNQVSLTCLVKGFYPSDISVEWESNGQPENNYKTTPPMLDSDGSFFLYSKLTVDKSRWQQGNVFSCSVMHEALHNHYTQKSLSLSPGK

[5] = molecular target: human IgG4 (human) [IgG part: P01861]; assay: mini-column chromatography, immobilised ligand
[6] = molecular target: human IgG1 (human) [IgG part: P01857]; assay: mini-column chromatography, immobilised ligand
[7] = molecular target: human IgG2 (human) [IgG part: P01859]; assay: mini-column chromatography, immobilised ligand
[8] = molecular target: human IgG (unfractionated, polyclonal); assay: mini-column; ligand density not determined
[9] = molecular target: human IgG (unfractionated, polyclonal); assay: filterplate; ligand density not determined

Chain of human IgG4 (human) [IgG part: P01861] (P01861 other isoform, or with tags, fused parts or gaps): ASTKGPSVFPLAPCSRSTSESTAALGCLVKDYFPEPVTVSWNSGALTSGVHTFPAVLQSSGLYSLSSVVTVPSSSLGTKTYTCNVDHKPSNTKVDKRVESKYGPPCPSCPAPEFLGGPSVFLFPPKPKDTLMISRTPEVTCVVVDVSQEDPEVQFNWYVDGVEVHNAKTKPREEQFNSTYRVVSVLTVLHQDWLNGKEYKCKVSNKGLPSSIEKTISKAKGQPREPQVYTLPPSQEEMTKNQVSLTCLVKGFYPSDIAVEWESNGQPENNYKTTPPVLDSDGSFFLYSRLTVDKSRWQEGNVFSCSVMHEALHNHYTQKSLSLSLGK
Chain of human IgG1 (human) [IgG part: P01857] (P01857 other isoform, or with tags, fused parts or gaps): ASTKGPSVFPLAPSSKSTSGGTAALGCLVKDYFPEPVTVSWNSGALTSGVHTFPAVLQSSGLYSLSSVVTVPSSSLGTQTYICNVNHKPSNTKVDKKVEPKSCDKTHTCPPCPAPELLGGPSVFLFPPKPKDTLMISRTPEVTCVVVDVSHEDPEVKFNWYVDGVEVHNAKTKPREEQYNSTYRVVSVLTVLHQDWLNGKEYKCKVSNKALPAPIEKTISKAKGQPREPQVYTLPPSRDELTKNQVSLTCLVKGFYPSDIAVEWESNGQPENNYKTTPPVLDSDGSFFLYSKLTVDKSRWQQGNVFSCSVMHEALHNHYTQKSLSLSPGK
Chain of human IgG3 (human) (P01860 other isoform, or with tags, fused parts or gaps): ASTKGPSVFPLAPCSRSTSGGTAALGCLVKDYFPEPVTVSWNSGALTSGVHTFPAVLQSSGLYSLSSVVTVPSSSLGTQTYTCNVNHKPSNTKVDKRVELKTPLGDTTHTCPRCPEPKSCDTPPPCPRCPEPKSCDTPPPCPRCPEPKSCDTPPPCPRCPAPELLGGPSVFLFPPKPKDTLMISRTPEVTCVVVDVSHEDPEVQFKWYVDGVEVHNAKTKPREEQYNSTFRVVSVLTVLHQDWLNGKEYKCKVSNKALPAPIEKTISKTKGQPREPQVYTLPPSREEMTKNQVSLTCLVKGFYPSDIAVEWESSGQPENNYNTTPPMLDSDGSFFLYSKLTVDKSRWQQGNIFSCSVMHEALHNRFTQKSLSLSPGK

Bound (% of Total Load) [1]: 0%
bdg % (of Total Load) [1]: 5%
Bound (% of Total Load) [2]: 89%
bdg % (of Total Load) [2]: 92%
Bound (% of Total Load) [3]: 96%
bdg % (of Total Load) [3]: 93%
Bound (% of Total Load) [4]: 85%
bdg % (of Total Load) [4]: 93%
binding efficiency [5]: > 90%
binding efficiency [6]: > 90%
binding efficiency [7]: > 90%
10% Breakthrough Capacity (mg IgG/mL resin) [8]: 12.9
Total Dynamic Capacity (mg IgG/mL resin) [8]: 16.3
Static Capacity (mg IgG/mL resin) [9]: 11.1
Substance: Protein A (from UniProt P38507 37-327)
